# Measured values reported in patent US11666658B2, “Rifamycin analogs and antibody-drug conjugates thereof” (Regeneron Pharmaceuticals, Inc., priority 2018, dated 2023).
# T1: human MSR1 extracellular domain (His9-hMSR1) (Homo sapiens, UniProt P21757)
# T1 construct: human MSR1 extracellular domain expressed with a N-terminal nonahistidine tag; purchased R&D Systems 2708-MS
# T1 sequence (P21757 77-451 limits assumed): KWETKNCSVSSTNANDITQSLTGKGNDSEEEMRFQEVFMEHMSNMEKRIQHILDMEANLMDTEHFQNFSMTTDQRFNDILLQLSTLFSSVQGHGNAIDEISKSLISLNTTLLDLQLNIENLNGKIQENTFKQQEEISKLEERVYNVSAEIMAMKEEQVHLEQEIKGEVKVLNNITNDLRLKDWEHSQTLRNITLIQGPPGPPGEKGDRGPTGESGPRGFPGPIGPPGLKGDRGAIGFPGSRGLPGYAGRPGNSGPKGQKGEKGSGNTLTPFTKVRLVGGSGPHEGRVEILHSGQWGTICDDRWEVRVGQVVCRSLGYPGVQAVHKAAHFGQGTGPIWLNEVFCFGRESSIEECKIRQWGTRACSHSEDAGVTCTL
# T2: MSR1 on differentiated THP-1 cells (Homo sapiens, UniProt P21757)
# T2 construct: endogenously expressed human MSR1; endogenous in cells; host or cells: THP-1 cells treated with 200 nM PMA
# T2 sequence (P21757 1-451): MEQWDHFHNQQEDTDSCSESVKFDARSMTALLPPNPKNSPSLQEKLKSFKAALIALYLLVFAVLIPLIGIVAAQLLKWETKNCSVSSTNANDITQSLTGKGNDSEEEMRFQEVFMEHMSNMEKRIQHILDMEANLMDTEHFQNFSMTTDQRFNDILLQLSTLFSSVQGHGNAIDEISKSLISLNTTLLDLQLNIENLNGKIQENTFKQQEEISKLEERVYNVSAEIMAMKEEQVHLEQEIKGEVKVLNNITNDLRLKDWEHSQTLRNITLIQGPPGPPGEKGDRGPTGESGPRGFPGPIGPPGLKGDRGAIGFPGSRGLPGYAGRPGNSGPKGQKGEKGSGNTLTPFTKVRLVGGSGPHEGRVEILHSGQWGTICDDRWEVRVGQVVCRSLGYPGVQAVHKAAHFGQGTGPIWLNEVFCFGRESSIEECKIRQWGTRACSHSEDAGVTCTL
# B1: H1H21234N-N297Q: "An anti-MSR1 antibody H1H21234N containing a N297Q mutation, which eliminates N-linked glycosylation of the Fc at this site" (antibody, V domains shown)
# VH: QVQLQESGPGLVKPSETLSLTCTVTGGSISRNYWSWIRQPPGKGLEWIGYIYYSGSIDYNPSLKSRVTISVDTSKNQFSLKLSSMTAADTAVYYCARDRWNWKYGMDVWGQGTTVIVSS
# VL: EIVLTQSPGTLSLSPGERATLSCRASQTVRNNYLAWYHQKPGQAPRLLIYGASSRATGIPDRFSGSGSGTDFTLTISRLEPEDFTVYYCHQYGNSPWTFGQGTKMEIKR
# How the values were obtained:
# [1] = system: S. aureus MRSA strain NRS384; experiment: S. aureus IV disseminated infection mouse model (humanized MSR1 mice), kidney burden; format: in vivo, Staphylococcus aureus; conditions: with vancomycin; for # of mice with S. aureus below the limit of detection: limit of detection = 250 cfu
# Description: To test the efficacy of an anti-MSR1 Ab-antibiotic ncADC according to the disclosure in vivo, an intravenous disseminated infection model was utilized. S. aureus MRSA strain NRS384 was grown overnight in trypic soy broth (TSB) and sub-cultured to mid-logarithmic phase. Bacteria were then washed twice with PBS and resuspended in PBS at a concentration of 1.2×10^8 cfu/mL. […] From one to three days post infection, mice were treated with 110 mg/kg vancomycin subcutaneously twice daily wherein indicated. […] Mice were monitored for weight loss and body conditioning score throughout the infection. At four days post infection, mice were euthanized and the S. aureus kidney burden was quantified by tissue homogenization followed by enumeration of colony forming units through serial dilution in PBS and plating onto trypicase soy agar plates.
# [2] = system: monkey MSR1 extracellular domain (HMM-mfMSR1); experiment: Surface plasmon resonance (Biacore 4000) binding kinetics, antibody-capture format, 25° C. and 37° C.; conditions: analyte HMM-mfMSR1
# Sequence of monkey MSR1 extracellular domain (HMM-mfMSR1) (as listed by the source): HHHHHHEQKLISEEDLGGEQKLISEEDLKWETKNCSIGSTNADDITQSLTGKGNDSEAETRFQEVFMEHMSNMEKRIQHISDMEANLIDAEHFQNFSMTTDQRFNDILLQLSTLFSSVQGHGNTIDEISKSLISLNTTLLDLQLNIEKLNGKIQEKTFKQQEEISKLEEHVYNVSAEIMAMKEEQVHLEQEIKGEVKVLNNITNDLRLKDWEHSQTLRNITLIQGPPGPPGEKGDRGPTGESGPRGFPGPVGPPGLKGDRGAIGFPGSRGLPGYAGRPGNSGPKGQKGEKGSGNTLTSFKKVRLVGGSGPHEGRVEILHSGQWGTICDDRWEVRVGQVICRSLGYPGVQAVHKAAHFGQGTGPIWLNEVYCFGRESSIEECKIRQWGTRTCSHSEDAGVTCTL
# Description: (§1) Binding affinities and kinetic constants of human anti-MSR1 antibodies for different MSR1 reagents were determined by real-time surface plasmon resonance (Biacore 4000). All binding studies were performed in 10 mM HEPES, 150 mM NaCl, 3 mM EDTA, and 0.05% v/v Surfactant Tween-20, pH 7.4 (HBS-ET) running buffer at 25° C. and 37° C.
# (§2) The association rate (ka) and dissociation rate (kd) were determined by fitting the real-time binding sensorgrams to a 1:1 binding model with mass transport limitation using Scrubber 2.0 c curve-fitting software. Binding dissociation equilibrium constant (KD) and dissociative half-life (t½) were calculated from the kinetic rates as: […]
# [3] = target: T1, human MSR1 extracellular domain (His9-hMSR1); experiment: as above; conditions: analyte His9-hMSR1
# Description: as §1, §2
# [4] = target: T2, MSR1 on differentiated THP-1 cells; experiment: Binding and internalization of cell-surface expressed MSR1 (confocal imaging); format: cell-based; conditions: 10 μg/mL antibody
# Description: The THP-1 cells were allowed to differentiate for 4 days at 37° C. in 5% CO2. […] The remaining two plates were incubated at 37° C. for 1 hour followed by fixation and staining for 20 minutes using a solution of 4% PFA+5 μM DRAQ5 diluted in PBS (internalization plates). After fixation, all plates were washed once with PBS. […] The remaining plates were incubated with PBS only. Confocal images were acquired on the Opera Phenix (Perkin Elmer) at 40× magnification. […] The total binding at 4° C. (RFU values of 4° C. unquenched wells), total binding at 37° C.
# For all calculations, background fluorescence from unstained wells was subtracted from every well. Total internalized RFU was calculated as follows: Total RFU of 37° C. unquenched samples—Surface RFU at 37° C. Surface RFU is defined as unquenched RFU at 37° C.-quenched RFU at 37° C.)/QE. QE (quenching efficiency) is defined as: 1-(Total RFU of 4° C. quenched sample/Total RFU of 4° C. unquenched sample). The % Internalization was determined from the following formula: (Total internalized RFU at 37° C./Total RFU at 37° C.)*100.
# [5] = mAb or conjugate dose 0.1 mg/kg
# [6] = 37° C., antibody-capture format
# [7] = 37° C., antibody-capture format, * = no dissociation observed, kd manually fixed at 1.00E−05
# [8] = Biacore, 25° C., * no dissociation observed, kd fixed at 1.00E−05
molecule,measurement,setting,value
B1,Average cfu/kidney pair,[1]; [5],2.43E+05 cfu/kidney pair
same,# of mice with S. aureus below the limit of detection,[1]; [5],0/6
same,Average cfu/kidney pair,[1]; mAb or conjugate dose 1 mg/kg,1.55E+05 cfu/kidney pair
same,# of mice with S. aureus below the limit of detection,[1]; mAb or conjugate dose 1 mg/kg,4/8
same,ka,[2]; [6],750000 M⁻¹ s⁻¹
same,kd,[2]; [7],1.00E−05* s^−1
same,ka,"[2]; Biacore, 25° C.",408000 M⁻¹ s⁻¹
same,kd,[2]; [8],1.95e-05 s⁻¹
same,ka,[3]; [6],787000 M⁻¹ s⁻¹
same,kd,[3]; [7],1.00E−05* s^−1
same,ka,"[3]; Biacore, 25° C.",497000 M⁻¹ s⁻¹
same,kd,[3]; [8],1.00E−05* s^−1
same,Total Binding at 4° C.,[4]; 4° C.,1953248
same,% Internalization,[4]; 37° C.,13.3%
same,Total Binding at 37° C.,[4]; 37° C.,5451125
same,Total Internalized RFU,[4]; 37° C.,722651 RFU
